The record followed here is patent publication US20050100554A1 (published 2005).

B2: Human papillomavirus 11 E1 (other)
chain: MADDSGTENEGSGCTGWFMVEAIVEHTTGTQISEDEEEEVEDSGYDMVDFIDDRHITQNSVEAQALFNRQEADAHYATVQDLKRKYLGSPYVSPISNVANAVESEISPRLDAIKLTTQPKKVKRRLFETRELTDSGYGYSEVEAATQVEKHGDPENGGDGQERDTGRDIEGEGVEHREAEAVDDSTREHADTSGILELLKCKDIRSTLHGKFKDCFGLSFVDLIRPFKSDRTTCADWVVAGFGIHHSIADAFQKLIEPLSLYAHIQWLTNAWGMVLLVLIRFKVNKSRCTVARTLGTLLNIPENHMLIEPPKIQSGVRALYWFRTGISNASTVIGEAPEWITRQTVIEHSLADSQFKLTEMVQWAYDNDICEESEIAFEYAQRGDFDSNARAFLNSNMQAKYVKDCAIMCRHYKHAEMKKMSIKQWIKYRGTKVDSVGNWKPIVQFLRHQNIEFIPFLSKLKLWLHGTPKKNCIAIVGPPDTGKSCFCMSLIKFLGGTVISYVNSCSHFWLQPLTDAKVALLDDATQPCWTYMDTYMRNLLDGNPMSIDRKHRALTLIKCPPLLVTSNIDISKEEKYKYLHSRVTTFTFPNPFPFDRNGNAVYELSDANWKCFFERLSSSLDIEDSEDEEDGSNSQAFRCVPGSVVRTL
notes: also called HPV 11 E1; cbe_251663
B3: Human papillomavirus 11 E7 (other)
chain: MHGRLVTLKDIVLDLQPPDPVGLHCYEQLEDSSEDEVDKVDKQDAQPLTQHYQILTCCCGCDSNVRLVVECTDGDIRQLQDLLLGTLNIVCPICAPKP
notes: also called HPV 11 E7; cbe_250834
B5: HPV 16 E1-E4 (other)
chain: MADPAAATKYPLLKLLGSTWPTTPPRPIPKPSPWAPKKHRRLSSDQDQSQTPETPATPLSCCTETQWTVLQSSLHLTAHTKDGLTVIVTLHP
notes: also called cbe_251059

For the assay “HPV 16 E1-E4”, the target named is B5. The assay is described as follows: Y2H; INT ID 141.
The target in the next assay is T1, DKFZP434I1735 protein (human, UniProt Q86XA9 451-2040).
T1 construct: also called cbe_3643627
T1 sequence (Q86XA9 451-2040 V880M limits assumed): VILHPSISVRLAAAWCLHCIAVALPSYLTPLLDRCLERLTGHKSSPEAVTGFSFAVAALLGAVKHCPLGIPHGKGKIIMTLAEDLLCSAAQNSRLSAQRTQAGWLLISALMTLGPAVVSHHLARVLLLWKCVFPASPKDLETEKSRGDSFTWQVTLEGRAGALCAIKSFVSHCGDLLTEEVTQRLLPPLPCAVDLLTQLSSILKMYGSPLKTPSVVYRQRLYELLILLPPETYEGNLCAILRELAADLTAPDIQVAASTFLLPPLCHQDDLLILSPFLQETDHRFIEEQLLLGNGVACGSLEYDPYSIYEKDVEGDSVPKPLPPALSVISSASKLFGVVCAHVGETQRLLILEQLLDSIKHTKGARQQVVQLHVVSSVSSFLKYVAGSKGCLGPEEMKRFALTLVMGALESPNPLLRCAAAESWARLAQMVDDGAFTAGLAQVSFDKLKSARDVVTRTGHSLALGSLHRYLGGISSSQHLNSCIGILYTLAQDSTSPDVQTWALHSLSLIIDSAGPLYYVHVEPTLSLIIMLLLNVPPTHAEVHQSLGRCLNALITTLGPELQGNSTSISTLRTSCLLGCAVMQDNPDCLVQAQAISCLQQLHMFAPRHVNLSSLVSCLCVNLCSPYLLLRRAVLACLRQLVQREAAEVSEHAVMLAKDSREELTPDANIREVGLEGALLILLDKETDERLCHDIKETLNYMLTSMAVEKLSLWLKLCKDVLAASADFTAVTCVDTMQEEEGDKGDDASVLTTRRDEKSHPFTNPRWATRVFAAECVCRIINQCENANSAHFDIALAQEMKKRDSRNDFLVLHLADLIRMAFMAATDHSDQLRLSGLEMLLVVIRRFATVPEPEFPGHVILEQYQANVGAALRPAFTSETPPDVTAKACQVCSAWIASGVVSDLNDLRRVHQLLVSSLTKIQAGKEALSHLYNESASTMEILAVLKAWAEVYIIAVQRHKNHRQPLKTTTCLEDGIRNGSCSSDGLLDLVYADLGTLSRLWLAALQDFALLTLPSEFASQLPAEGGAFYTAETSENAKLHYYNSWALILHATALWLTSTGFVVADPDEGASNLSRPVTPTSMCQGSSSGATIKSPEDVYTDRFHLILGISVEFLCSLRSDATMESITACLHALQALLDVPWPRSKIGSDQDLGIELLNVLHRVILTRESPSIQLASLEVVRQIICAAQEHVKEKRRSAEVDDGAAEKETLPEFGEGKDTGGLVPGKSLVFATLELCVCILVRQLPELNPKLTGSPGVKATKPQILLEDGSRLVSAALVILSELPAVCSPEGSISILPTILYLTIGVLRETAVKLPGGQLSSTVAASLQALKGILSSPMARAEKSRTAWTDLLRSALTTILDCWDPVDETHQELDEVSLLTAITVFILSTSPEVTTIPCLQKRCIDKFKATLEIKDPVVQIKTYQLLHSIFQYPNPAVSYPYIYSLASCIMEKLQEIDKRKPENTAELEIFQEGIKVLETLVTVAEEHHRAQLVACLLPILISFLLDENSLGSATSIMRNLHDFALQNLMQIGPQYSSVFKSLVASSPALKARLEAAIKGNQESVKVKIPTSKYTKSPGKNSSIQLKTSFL
The assay is described as follows: Y2H; INT ID 50.

Assay [1] addresses T2, signal-induced proliferation-associated 1 like 1 (human, UniProt O43166 1-1804).
T2 construct: also called KIAA0440; cbe_3056756
The assay is described as follows: Y2H; INT ID 37.

The target in another assay is T3, PTPN21 (human, UniProt Q16825 1-1174).
T3 construct: also called cbe_4260642
T3 sequence: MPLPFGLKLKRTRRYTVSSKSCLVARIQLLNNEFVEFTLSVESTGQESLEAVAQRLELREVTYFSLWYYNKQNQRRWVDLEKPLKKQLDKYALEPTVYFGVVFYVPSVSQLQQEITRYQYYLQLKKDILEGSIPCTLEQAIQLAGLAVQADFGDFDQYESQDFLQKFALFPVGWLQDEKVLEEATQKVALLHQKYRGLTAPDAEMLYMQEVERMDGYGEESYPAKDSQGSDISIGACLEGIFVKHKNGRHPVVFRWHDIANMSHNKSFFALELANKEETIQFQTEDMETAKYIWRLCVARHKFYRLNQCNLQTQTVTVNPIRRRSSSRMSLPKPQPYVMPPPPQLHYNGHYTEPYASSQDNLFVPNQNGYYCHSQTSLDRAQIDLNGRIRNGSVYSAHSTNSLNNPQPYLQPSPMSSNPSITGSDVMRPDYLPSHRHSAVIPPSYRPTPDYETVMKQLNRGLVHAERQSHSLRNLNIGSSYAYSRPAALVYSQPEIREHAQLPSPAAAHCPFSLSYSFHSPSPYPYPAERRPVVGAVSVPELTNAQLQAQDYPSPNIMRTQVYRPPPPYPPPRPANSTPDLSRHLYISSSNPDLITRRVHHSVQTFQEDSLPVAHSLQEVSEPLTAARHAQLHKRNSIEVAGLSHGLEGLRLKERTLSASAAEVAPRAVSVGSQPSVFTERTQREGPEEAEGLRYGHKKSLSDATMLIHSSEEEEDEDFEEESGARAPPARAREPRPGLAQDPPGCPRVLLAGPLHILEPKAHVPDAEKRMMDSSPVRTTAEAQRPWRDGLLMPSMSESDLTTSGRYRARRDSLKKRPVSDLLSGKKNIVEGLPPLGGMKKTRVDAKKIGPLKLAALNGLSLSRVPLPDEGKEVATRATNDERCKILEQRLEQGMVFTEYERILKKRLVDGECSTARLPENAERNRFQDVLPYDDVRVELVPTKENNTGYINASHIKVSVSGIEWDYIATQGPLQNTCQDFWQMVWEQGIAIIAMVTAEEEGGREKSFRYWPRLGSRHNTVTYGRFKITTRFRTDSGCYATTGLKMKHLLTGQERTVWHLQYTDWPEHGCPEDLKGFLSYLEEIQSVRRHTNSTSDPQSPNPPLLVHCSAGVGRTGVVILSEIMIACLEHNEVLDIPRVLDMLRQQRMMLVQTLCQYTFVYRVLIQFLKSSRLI
The assay is described as follows: Y2H; INT ID 41.

The next assay addresses T4, ITGB4 (human, UniProt P16144 28-1822).
T4 construct: also called cbe_4280774
The assay is described as follows: Y2H; INT ID 49.

The target in assay [2] is B2. The assay is described as follows: Y2H; INT ID 51.
For a further assay, the target named is T5, RABIF (human, UniProt P47224 1-123).
T5 construct: also called cbe_3472582
T5 sequence: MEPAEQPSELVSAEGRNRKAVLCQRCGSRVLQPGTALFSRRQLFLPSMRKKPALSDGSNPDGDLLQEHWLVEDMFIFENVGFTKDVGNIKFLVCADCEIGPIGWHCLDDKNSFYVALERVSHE
The assay is described as follows: Y2H; INT ID 139.

Assay [3] deals with T6, PEST-containing nuclear protein (human, UniProt Q8WW12 2-178).
T6 construct: also called pcnp; PCNP
T6 sequence: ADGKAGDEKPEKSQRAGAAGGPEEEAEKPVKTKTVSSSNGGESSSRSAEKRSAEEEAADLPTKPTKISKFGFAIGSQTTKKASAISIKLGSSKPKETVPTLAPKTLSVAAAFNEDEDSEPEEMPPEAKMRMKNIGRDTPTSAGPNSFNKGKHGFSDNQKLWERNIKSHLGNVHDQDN
The assay is described as follows: Y2H; INT ID 140.

The target of another assay is T7, PCDH1 (human, UniProt Q08174 58-1060).
T7 construct: also called cbe_4269156
T7 sequence: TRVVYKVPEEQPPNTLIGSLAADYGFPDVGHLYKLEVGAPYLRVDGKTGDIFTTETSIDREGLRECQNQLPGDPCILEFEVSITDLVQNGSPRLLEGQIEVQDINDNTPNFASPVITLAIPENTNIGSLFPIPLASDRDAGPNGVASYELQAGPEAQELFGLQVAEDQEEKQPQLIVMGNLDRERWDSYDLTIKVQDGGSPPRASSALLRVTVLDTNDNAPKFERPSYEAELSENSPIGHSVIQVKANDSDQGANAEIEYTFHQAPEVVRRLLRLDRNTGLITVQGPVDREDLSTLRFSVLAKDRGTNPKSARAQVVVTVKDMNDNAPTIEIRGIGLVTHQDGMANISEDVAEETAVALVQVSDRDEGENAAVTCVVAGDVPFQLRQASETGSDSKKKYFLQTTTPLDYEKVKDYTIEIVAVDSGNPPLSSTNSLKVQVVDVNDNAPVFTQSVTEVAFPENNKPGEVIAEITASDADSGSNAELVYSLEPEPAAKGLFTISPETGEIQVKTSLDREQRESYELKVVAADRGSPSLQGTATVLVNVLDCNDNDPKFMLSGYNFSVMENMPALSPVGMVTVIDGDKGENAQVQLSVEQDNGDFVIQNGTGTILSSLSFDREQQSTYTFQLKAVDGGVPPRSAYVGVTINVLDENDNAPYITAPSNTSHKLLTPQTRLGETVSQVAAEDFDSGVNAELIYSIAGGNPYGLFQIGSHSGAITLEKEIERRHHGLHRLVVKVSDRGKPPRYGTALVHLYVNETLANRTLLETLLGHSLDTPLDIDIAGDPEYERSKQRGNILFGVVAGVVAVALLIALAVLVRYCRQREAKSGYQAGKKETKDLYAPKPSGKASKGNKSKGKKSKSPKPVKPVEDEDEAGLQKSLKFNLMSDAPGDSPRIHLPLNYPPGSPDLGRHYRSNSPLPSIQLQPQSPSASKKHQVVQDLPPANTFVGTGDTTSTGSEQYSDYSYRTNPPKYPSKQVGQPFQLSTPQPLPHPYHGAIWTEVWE
The assay is described as follows: Y2H; INT ID 142.

For assay [4], the target named is B3. The assay is described as follows: Y2H; INT ID 38.

T4 sequence (P16144 28-1822 limits assumed): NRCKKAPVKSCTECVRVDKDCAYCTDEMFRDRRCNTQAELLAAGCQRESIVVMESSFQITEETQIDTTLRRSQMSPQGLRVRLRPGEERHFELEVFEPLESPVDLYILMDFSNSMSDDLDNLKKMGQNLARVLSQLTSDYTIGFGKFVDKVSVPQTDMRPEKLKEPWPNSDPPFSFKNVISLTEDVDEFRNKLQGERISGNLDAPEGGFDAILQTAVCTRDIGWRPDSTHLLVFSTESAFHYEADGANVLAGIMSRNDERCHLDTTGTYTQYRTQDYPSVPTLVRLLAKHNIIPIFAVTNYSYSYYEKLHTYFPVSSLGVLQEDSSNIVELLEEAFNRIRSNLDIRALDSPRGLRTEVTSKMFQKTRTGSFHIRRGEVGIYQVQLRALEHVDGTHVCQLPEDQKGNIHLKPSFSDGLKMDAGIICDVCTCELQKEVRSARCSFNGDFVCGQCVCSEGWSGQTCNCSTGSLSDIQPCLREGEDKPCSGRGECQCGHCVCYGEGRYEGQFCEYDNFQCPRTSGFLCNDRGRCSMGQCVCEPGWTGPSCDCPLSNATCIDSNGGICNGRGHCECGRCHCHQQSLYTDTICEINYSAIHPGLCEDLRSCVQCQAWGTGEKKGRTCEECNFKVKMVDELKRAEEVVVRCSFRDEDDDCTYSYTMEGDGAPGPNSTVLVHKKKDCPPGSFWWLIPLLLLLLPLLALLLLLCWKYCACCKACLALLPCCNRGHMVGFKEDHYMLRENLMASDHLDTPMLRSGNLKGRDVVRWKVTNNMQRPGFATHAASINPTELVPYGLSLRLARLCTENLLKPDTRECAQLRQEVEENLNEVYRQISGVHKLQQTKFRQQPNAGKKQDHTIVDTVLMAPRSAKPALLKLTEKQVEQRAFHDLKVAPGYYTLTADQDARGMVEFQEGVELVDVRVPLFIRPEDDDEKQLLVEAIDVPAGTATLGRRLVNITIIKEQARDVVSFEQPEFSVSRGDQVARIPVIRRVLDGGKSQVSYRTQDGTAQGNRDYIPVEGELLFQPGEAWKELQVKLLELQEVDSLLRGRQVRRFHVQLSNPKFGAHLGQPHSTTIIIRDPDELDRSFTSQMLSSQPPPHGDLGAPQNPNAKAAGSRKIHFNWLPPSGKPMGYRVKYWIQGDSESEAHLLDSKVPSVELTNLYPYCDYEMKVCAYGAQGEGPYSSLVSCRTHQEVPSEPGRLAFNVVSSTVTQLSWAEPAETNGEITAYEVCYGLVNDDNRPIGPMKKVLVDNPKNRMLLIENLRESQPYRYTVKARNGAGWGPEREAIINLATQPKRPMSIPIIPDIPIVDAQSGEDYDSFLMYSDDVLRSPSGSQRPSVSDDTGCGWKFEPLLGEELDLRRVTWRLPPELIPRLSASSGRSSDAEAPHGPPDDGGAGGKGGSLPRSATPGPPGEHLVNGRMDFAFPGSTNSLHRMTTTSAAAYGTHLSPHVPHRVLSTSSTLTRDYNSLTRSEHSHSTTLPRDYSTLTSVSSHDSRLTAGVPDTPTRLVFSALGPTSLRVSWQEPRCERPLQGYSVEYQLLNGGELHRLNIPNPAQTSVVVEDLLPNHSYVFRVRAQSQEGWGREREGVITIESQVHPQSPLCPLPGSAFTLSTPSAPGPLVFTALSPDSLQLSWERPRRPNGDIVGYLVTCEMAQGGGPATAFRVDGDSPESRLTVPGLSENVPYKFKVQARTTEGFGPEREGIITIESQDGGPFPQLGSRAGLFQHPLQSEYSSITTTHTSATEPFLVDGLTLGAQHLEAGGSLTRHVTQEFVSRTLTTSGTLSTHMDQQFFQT

B1: hypothetical protein FLJ20343 (other)
chain: MAQPHTTSVPYFARSPAPPPPSRSGAPPQPPATLRPSRRRTRPPRPADRRDAPADCAYLWRILTPRRGRARRSDVGARHRACGRRDVLLSRQGPANPEGARRVVGGQERVWPAVRRGRGGSMFRLLSWSLGRGFLRAAGRRCRGCSARLLPGLAGGPGPEVQVPPSRVAPHGRGPGLLPLLAALAWFSRPAAAEEEEQQGADGAAAEDGADEAEAEIIQLLKRAKLSIMKDEPEEAELILHDALRLAYQTDNKKAITYTYDLMANLAFIRGQLENAEQLFKATMSYLLGGGMKQEDNAIIEISLKLASIYAAQNRQEFAVAGYEFCISTLEEKIEREKELAEDIMSVEEKANTHLLLGMCLDACARYLLFSKQPSQAQRMYEKALQISEEIQGERHPQTIVLMSDLATTLDAQGRFDEAYIYMQRASDLARQINHPELHMVLSNLAAVLMHRERYTQAKEIYQEALKQAKLKKDEISVQHIREELAELSKKSRPLTNSVKL
notes: also called cbe_3880186
For B1, the binding result with HPV 16 E1-E4 is on record as “binds”. Consider B2, for which the binding result with DKFZP434I1735 protein was “binds”. As to B3, the binding result (in [1]; in the assay with PTPN21; with ITGB4) was “binds” in each case.

B4: proteosome (prosome, macropain) subunit, beta type, 3 (other)
chain: SIMSYNGGAVMAMKGKNCVAIAADRRFGIQAQLVTTDFQKIFPMGDRLYIGLAGLATDVQTVAQRLKFRLNLYELKEGRQIKPYTLMSMVANLLYEKRFGPYYTEPVIAGLDPKTFKPFICSLDLIGCPMVTDDFVVSGTCAEQMYGMCESLWEPNMDPDHLFETISQAMLNAVDRDAVSGMGVIVHIIEKDKITTRTLKARMD
notes: also called PSMB3; cbe_3842044
B4: the binding result in assay [2] was “binds”. For B5, the binding result (in the assay with RABIF; in assay [3]; with PCDH1) was “binds” each time.

B6: gbh_af252829 (other)
chain: MGKKQNRKTGNSKTQSTSPPPKERSSSPATDQSWMENDFDELREEGFRRSNYSELREDIQTKGKEVENFEKNLEECITRITNTEKCLKELMELKTKARELREECRSLRSQCDQLEERVSAMEDEMNEMKQEGKFREKRIKRNEQSLQEIWDYVKRPNLRLIGVPESDAENGTKLENTLQDIIQETFPNLARQANVQIQEIQRTPQRYSSRRATPRHIIVRFTKVEMKEKMLRAAREKGRVTLKGKPIRLTADLSAETLQARREWGPILNILKEKNFQPRISYPAKLSFISEGEIKYFTDKQMLTDFVTSRPALKELLKEALNMERNNRYQPLQNHAKM
notes: also called Homo sapiens chromosome 8 clone BAC 495D4 map 8q24; cbe_3454406
As for B6, the binding result in [4] is given as “binds”.
